Consider 6 substances from patent US10227388B2, “Peptides and combination of peptides for use in immunotherapy against non-small cell lung cancer and other cancers” (immatics biotechnologies GmbH, priority 2015, dated 2019).

One experiment addresses HLA-A*02:01 (Homo sapiens, UniProt P04439, D140Y/D185E/D98H/E176V/E277Q/G131W/G231S/I119V/I121R/I166T/I218V/L300P/L318F/N151K/N90K/P208A/P217A/Q86G/Q94H/R138H/R169H/T345S). The experiment in a line: MHC binding assay (UV-ligand exchange, ELISA, peptide exchange yield). The conditions noted are these: binding of HLA-class I restricted peptides to HLA-A*02:01. The method, boiled down: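 Exchange yield was quantified as stabilized β2m-containing complex: monomers diluted 100-fold bound to streptavidin-coated wells, probed with HRP-conjugated anti-β2m, read at 450 nm after TMB. Complexes had been generated by UV cleavage of a photolabile ligand and replacement with the candidate peptide.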
Take “443 (GLWEIENNPTV; listed as Homo sapiens) [compound 443]”: the “Peptide exchange (MHC class I binding score, peptide exchange yield)” value (shortened to “Peptide exchange”) is “″+++″ (≥50% = +++)”.

Consider “460 (AMLEKNYKL; listed as Homo sapiens) [compound 460]”, for which the “Peptide exchange” value is recorded as “″++++″ (≥75% = ++++)”.

As to “489 (KMWEELPEVV; listed as Homo sapiens) [compound 489]”, the “Peptide exchange” value is listed as “″+++″ (≥50% = +++)”.

Consider “499 (KIFDIDEAEEGV; listed as Homo sapiens) [compound 499]”, for which the “Peptide exchange” value is reported as “″++″ (≥20% = ++)”.

With “511 (FLDPYCSASV; listed as Homo sapiens) [compound 511]”, the “Peptide exchange” value is “″++″ (≥20% = ++)”.

Consider “603 (FLIEPEHVNTV; listed as Homo sapiens) [compound 603]”, for which the “Peptide exchange” value is given as “″++″ (≥20% = ++)”.

The subject of the next experiment is CD8+ T cells. The experiment in a line: In vitro immunogenicity: T-cell priming with artificial antigen presenting cells loaded with peptide/MHC complexes and anti-CD28 antibody, multimer readout. The experiment is classed as cell-based, human. To be noted: HLA-A*02 restricted peptides; positive wells among evaluable. The procedure: In an aspect, the peptides are pre-screened for immunogenicity before being included in the warehouse. By way of example, and not limitation, the immunogenicity of the peptides included in the warehouse is determined by a method comprising in vitro T-cell priming through repeated stimulations of CD8+ T cells from healthy donors with artificial antigen presenting cells loaded with peptide/MHC complexes and anti-CD28 antibody.
In order to obtain information regarding the immunogenicity of the TUMAPs of the present invention, the inventors performed investigations using an in vitro T-cell priming assay based on repeated stimulations of CD8+ T cells with artificial antigen presenting cells (aAPCs) loaded with peptide/MHC complexes and anti-CD28 antibody.
In order to perform in vitro stimulations by artificial antigen presenting cells loaded with peptide-MHC complex (pMHC) and anti-CD28 antibody, the inventors first isolated CD8+ T cells from fresh HLA-A*02 leukapheresis products via positive selection using CD8 microbeads (Miltenyi Biotec, Bergisch-Gladbach, Germany) of healthy donors obtained from the University clinics Mannheim, Germany, after informed consent.
PBMCs and isolated CD8+ lymphocytes were incubated in T-cell medium (TCM) until use consisting of RPMI-Glutamax (Invitrogen, Karlsruhe, Germany) supplemented with 10% heat inactivated human AB serum (PAN-Biotech, Aidenbach, Germany), 100 U/ml Penicillin/100 μg/ml Streptomycin (Cambrex, Cologne, Germany), 1 mM sodium pyruvate (CC Pro, Oberdorla, Germany), 20 μg/ml Gentamycin (Cambrex). 2.5 ng/ml IL-7 (PromoCell, Heidelberg, Germany) and 10 U/ml IL-2 (Novartis Pharma, Nürnberg, Germany) were also added to the TCM at this step.
Generation of pMHC/anti-CD28 coated beads, T-cell stimulations and readout was performed in a highly defined in vitro system using four different pMHC molecules per stimulation condition and 8 different pMHC molecules per readout condition.
The purified co-stimulatory mouse IgG2a anti human CD28 Ab 9.3 (Jung et al., 1987) was chemically biotinylated using Sulfo-N-hydroxysuccinimidobiotin as recommended by the manufacturer (Perbio, Bonn, Germany). Beads used were 5.6 μm diameter streptavidin coated polystyrene particles (Bangs Laboratories, Illinois, USA).
pMHC used for positive and negative control stimulations were A*0201/MLA-001 (peptide […] (SEQ ID NO. 664) from modified Melan-A/MART-1) and A*0201/DDX5-001 ([…] from DDX5, SEQ ID NO. 665), respectively.
800.000 beads/200 μl were coated in 96-well plates in the presence of 4×12.5 ng different biotin-pMHC, washed and 600 ng biotin anti-CD28 were added subsequently in a volume of 200 μl. Stimulations were initiated in 96-well plates by co-incubating 1×10^6 CD8+ T cells with 2×10^5 washed coated beads in 200 μl TCM supplemented with 5 ng/ml IL-12 (PromoCell) for 3 days at 37° C. Half of the medium was then exchanged by fresh TCM supplemented with 80 U/ml IL-2 and incubating was continued for 4 days at 37° C. This stimulation cycle was performed for a total of three times. For the pMHC multimer readout using 8 different pMHC molecules per condition, a two-dimensional combinatorial coding approach was used as previously described (Andersen et al., 2012) with minor modifications encompassing coupling to 5 different fluorochromes. Finally, multimeric analyses were performed by staining the cells with Live/dead near IR dye (Invitrogen, Karlsruhe, Germany), CD8-FITC antibody clone SK1 (BD, Heidelberg, Germany) and fluorescent pMHC multimers. For analysis, a BD LSRII SORP cytometer equipped with appropriate lasers and filters was used. Peptide specific cells were calculated as percentage of total CD8+ cells. Evaluation of multimeric analysis was done using the FlowJo software (Tree Star, Oreg., USA). In vitro priming of specific multimer+CD8+ lymphocytes was detected by comparing to negative control stimulations. […]
In the case of “443 (GLWEIENNPTV; listed as Homo sapiens) [compound 443]”, the “Wells positive [%]” value was “″+″ (<20% = +)”.

On to “460 (AMLEKNYKL; listed as Homo sapiens) [compound 460]”, for which the “Wells positive [%]” value is “″+″ (<20% = +)”.

Consider “489 (KMWEELPEVV; listed as Homo sapiens) [compound 489]”, for which the “Wells positive [%]” value is reported as “″+″ (<20% = +)”.

“499 (KIFDIDEAEEGV; listed as Homo sapiens) [compound 499]”: the “Wells positive [%]” value was “″+″ (<20% = +)”.

For the substance “511 (FLDPYCSASV; listed as Homo sapiens) [compound 511]”, the “Wells positive [%]” value is “″+″ (<20% = +)”.

Regarding “603 (FLIEPEHVNTV; listed as Homo sapiens) [compound 603]”, the “Wells positive [%]” value is reported as “″+″ (<20% = +)”.
